Results on 7 molecules are retold here after US20060084596A1 (UNIVERSITY OF SOUTH FLORIDA, published 2006).

Several values for one entry are separate records, joined by “and”; a condition that tells them apart may be missing. Identical values can stand only once. Like-named read-outs stand apart in the source and are kept apart here. Positions of bridges follow the written chain, without caps; N, C: chain ends. Non-standard residues stand in square brackets, D forms with d.

Assay [1] has as its target acidic fibroblast growth factor (aFGF) (UniProt P05230 16-155, limits assumed). Description: cell-based or functional assay.
The target of assay [2] is T1, vascular endothelial growth factor (VEGF) (UniProt P15692-4 27-191, limits assumed). Description: cell-based or functional assay.
T1 sequence (P15692 other isoform, or with tags, fused parts or gaps limits assumed): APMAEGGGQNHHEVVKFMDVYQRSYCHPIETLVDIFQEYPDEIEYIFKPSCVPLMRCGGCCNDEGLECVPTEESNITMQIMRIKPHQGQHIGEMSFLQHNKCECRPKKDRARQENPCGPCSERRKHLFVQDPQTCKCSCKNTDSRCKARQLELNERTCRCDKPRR
Assay [3] addresses insulin-like growth factor-1 (IGF-1) (UniProt P05019 49-118). Description: cell-based or functional assay.
Assay [4] addresses T2, platelet derived growth factor PDGF-BB (UniProt P01127 82-190). Description: cell-based or functional assay.
Assay [5] has as its target T2, platelet derived growth factor PDGF-BB. Description: cell-based or functional assay. This is another data set of the same source.
Assay [6] concerns the target insulin-like growth factor-1 (IGF-1) (UniProt P05019). Description: cell-based or functional assay.
Assay [7] addresses T1, vascular endothelial growth factor …. Description: cell-based or functional assay. The source holds these as a separate data set.
Assay [8] addresses T2, platelet derived growth factor PDGF-BB. Description: cell-based or functional assay. The source holds these as a separate data set.
Assay [9] has as its target T1, vascular endothelial growth factor …. Description: inhibition of [125I]-VEGF binding to NIH 3T3 cells overexpressing Flk-1, GFB-111 10 µM.
The target of assay [10] is T2, platelet derived growth factor PDGF-BB. Description: inhibition of [125I]-PDGF-BB binding to NIH 3T3 cells (PDGFR), 4 °C.
The target of assay [11] is T1, vascular endothelial growth factor …. Description: cell-based or functional assay. The source holds these as a separate data set.

Chain of acidic fibroblast growth factor (aFGF) (P05230 16-155 limits assumed): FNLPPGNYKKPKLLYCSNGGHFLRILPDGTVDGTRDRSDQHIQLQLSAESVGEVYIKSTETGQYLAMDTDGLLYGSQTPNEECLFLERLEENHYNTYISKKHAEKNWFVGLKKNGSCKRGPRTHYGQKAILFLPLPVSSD
T2 sequence (P01127 82-190 limits assumed): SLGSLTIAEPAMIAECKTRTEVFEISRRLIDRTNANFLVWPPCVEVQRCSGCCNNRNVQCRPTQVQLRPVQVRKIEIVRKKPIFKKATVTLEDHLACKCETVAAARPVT
Chain of insulin-like growth factor-1 (IGF-1) (UniProt P05019) (P05019 49-118 limits assumed): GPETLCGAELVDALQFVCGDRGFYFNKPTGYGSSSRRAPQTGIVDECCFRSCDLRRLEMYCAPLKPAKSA
Chain of insulin-like growth factor-1 (IGF-1) (UniProt P05019 49-118) (P05019 49-118 limits assumed): as above

B1: GFB-105 (designed binder)
peptide: GDFD
modifications: linker N-C via 3‑aminomethyl‑5‑aminobenzamide; also: four loops on But-Calix calix[4]arene scaffold
As usually defined, the % Inhibition is the drop in the measured response relative to a control, in per cent. In the case of B1, in assay [1], the “(IC50) Inhibition, p42” value was 66.4 µM per head; likely % and the “(IC50) Inhibition, p44” value was 75.7 µM per head; likely %. Moreover, in assay [2], the “IC50, p42” value was over 100 µM and the “IC50, p44” value was over 100 µM. Further, the “% Inhibition at 100 µM, IGF1R-Y-P” value in assay [3] amounted to 1.3%.

B2: GFB-115 (designed binder)
peptide: GKGF
modifications: linker N-C via 3‑aminomethyl‑5‑aminobenzamide; also: four loops on But-Calix scaffold
In the case of B2, in [1], the “(IC50) Inhibition, p42” value was -21 µM per head; likely % and the “(IC50) Inhibition, p44” value is -23.9 µM per head; likely %. Besides, in [2], the “IC50, p42” value was 5 µM and 10 µM; the “IC50, p44” value is 5 µM and 10 µM. Moreover, the “IC50, PDGF-BB-stimulated PDGF receptor tyrosine autophosphorylation” value in assay [4] was 50 µM. Besides, in [5], the “IC50, PDGFR-Y-P” value is over 50 µM and the “IC50, p42/Erk2” value is over 50 µM. In assay [3], the “% Inhibition at 100 µM, IGF1R-Y-P” value is -38.3%; the “% Inhibition at 100 µM, p42” value is -12.4%; the “% Inhibition at 100 µM, p44” value turned out to be 51.9%.

B3: GFB-108 (designed binder)
peptide: [dA]DGD
modifications: linker N-C via 3‑aminomethyl‑5‑aminobenzamide; also: four loops on But-Calix calix[4]arene scaffold
For B3, in assay [1], the “(IC50) Inhibition, p42” value is 67.8 µM per head; likely % and the “(IC50) Inhibition, p44” value is 80.1 µM per head; likely %. In [2], the “IC50, Flk-1-Y-P” value was 10 µM; the “IC50, p42” value worked out at 50 µM; the “IC50, p44” value worked out at 50 µM. In assay [5], the “IC50, PDGFR-Y-P” value amounted to 9 µM and the “IC50, p42/Erk2” value turned out to be 57 µM. Besides, in assay [3], the “% Inhibition at 100 µM, p42” value was 67.8% and the “% Inhibition at 100 µM, p44” value came out at 80.1%.

B4: GFB-111 (designed binder)
peptide: GDGY
modifications: linker N-C via 3‑aminomethyl‑5‑aminobenzamide; also: four loops on But-Calix calix[4]arene scaffold
The term IC50 denotes the concentration that inhibits the measured activity by half. A higher IC50 goes with a need for much substance. For B4, the “(IC50) Inhibition, p44” value in assay [1] is 68 µM per head; likely % and 51.8 µM per head; likely %. In assay [6], the % Inhibition at 100 µM, IGF1R-Y-P is -12.4%; the % Inhibition at 100 µM, p42 was -18.4%; the % Inhibition at 100 µM, p44 turned out to be 10.7%. In addition, in assay [7], the IC50, Flk-1-Y-P amounted to 5 µM; the IC50, VEGF-stimulated Flk-1 tyrosine phosphorylation and MAPK activation amounted to 10 µM; the IC50, p42 is 10 µM; the IC50, p44 was 10 µM. In [8], this molecule displayed an IC50, PDGF-BB stimulated DNA synthesis ([3H]-thymidine incorporation) of 6.5 µM; an IC50, PDGF-dependent activation of Erk1 of 0.8 µM; an IC50, PDGF-dependent activation of Erk2 of 1.2 µM; an IC50, PDGFR-Y-P of 0.25 µM. Further, in assay [8], the IC50, p42/Erk2 worked out at 2.6 µM and the PDGF-BB stimulation of receptor tyrosine phosphorylation, complete block worked out at 3 µM. The molecule further gave an inhibition of [125I]-VEGF binding at 10 µM GFB-111 in [9] of 50%. This molecule also gave a 50% inhibitory concentration (IC50) in [10] of 0.25 µM.

B5: GFB-113 (designed binder)
peptide: GDSD
modifications: linker N-C via 3‑aminomethyl‑5‑aminobenzamide; also: four loops on But-Calix calix[4]arene scaffold
On to B5, for which, in assay [1], the “(IC50) Inhibition, p42” value is 53.6 µM per head; likely % and the “(IC50) Inhibition, p44” value was 64.3 µM per head; likely %. In addition, in assay [2], the “IC50, Flk-1-Y-P” value is under 10 µM; the “IC50, p42” value is 10 µM; the “IC50, p44” value came out at 10 µM. For the same molecule, in assay [5], the “IC50, PDGFR-Y-P” value was 2.8 µM and the “IC50, p42/Erk2” value is 30 µM. Besides, in assay [3], the “% Inhibition at 100 µM, IGF1R-Y-P” value was -18.9%; the “% Inhibition at 100 µM, p42” value is -31.4%; the “% Inhibition at 100 µM, p44” value was determined as 18.7%.

B6: GFB-112 (designed binder)
peptide: ADGD
modifications: linker N-C via 3‑aminomethyl‑5‑aminobenzamide; also: four loops on But-Calix calix[4]arene scaffold
As to B6, in assay [1], the “(IC50) Inhibition, p42” value is 59.7 µM per head; likely % and 40.2 µM per head; likely %; the “(IC50) Inhibition, p44” value is 62.9 µM per head; likely % and 39.6 µM per head; likely %. In assay [2], the “IC50, Flk-1-Y-P” value is under 10 µM; the “IC50, p42” value turned out to be 10 µM; the “IC50, p44” value stood at 10 µM. Besides, in assay [5], the “IC50, PDGFR-Y-P” value is 29 µM and the “IC50, p42/Erk2” value was 26 µM. In assay [3], the “% Inhibition at 100 µM, IGF1R-Y-P” value worked out at 0.6%; the “% Inhibition at 100 µM, p42” value is -7.6%; the “% Inhibition at 100 µM, p44” value was 30.4%.

B7: GFB-116 (designed binder)
peptide: GKGK
modifications: linker N-C via 3‑aminomethyl‑5‑aminobenzamide; also: four loops on But-Calix scaffold
As to B7, in [1], the “(IC50) Inhibition, p42” value is 99.2 µM per head; likely % and 99.6 µM per head; likely % and 102 µM per head; likely % and 99.7 µM per head; likely %; the “(IC50) Inhibition, p42 (mean)” value was 100 µM per head; likely %; the “(IC50) Inhibition, p44” value was 97.5 µM per head; likely % and 97.2 µM per head; likely % and 116 µM per head; likely % and 99.9 µM per head; likely %; the “(IC50) Inhibition, p44 (mean)” value is 103 µM per head; likely %. In [8], this molecule displayed an IC50, PDGFR-Y-P of 40 µM and an IC50, p42/Erk2 of 28 µM. In assay [2], the “IC50, Flk-1-Y-P” value was 0.3 µM; the “IC50, p42” value was determined as 5 µM; the “IC50, p44” value was found to be 5 µM. Besides, in [11], the “IC50, VEGF-stimulated flk-1 tyrosine phosphorylation” value turned out to be 3000 µM.
